According to article PMC6222848, “Spatial Overlap of Claudin- and Phosphatidylinositol Phosphate-Binding Sites on the First PDZ Domain of Zonula Occludens 1 Studied by NMR” (Molecules : A Journal of Synthetic Chemistry and Natural …, 2018):

B1: GST-tagged mouse ZO-1(PDZ1) (residues 18–110) [mouse] / His6-tagged thioredoxin (Trx) fusion protein of mouse CLD-3 C-terminus (Trx-CLD3, residues 210–219) [mouse] (parent complex)
chain 1: IWEQHTVTLHRAPGFGFGIAISGGRDNPHFQSGETSIVISDVLKGGPAEGQLQENDRVAMVNGVSMDNVEHAFAVQQLRKSGKNAKITIRRKK
chain 2: GTAYDRKDYV

Variants of: B1
Assay: SPR; absence of phytic acid (gray bar); parent: 1.2e+03; read off a plot

Row | Variant | response [RU]
1 | chain 1 IWEQHTVTLHRAPGFGFGIAISGGRDNPHFQSGETSIVISDVLKGGPAEGQLQENDRVAMVNGVSMDNVEHAFAVQQLAKSGKNAKITIRRKK [chain 1 R79A] | ~40
2 | chain 1 IWEQHTVTLHRAPGFGFGIAISGGRDNPHFQSGETSIVISAVLKGGPAEGQLQENDRVAMVNGVSMDNVEHAFAVQQLRKSGKNAKITIRRKK [chain 1 D41A] | ~110

More lines, now with the values ahead:

Row | response [RU] | Variant
3 | ~28 | chain 1 IWEQHTVTLHRAPGFGFGIAISGGRDNPHFQSGETSIVISDVAKGGPAEGQLQENDRVAMVNGVSMDNVEHAFAVQQLRKSGKNAKITIRRKK [chain 1 L43A]
4 | ~15 | chain 1 IWEQHTVTLHRAPGFGAGIAISGGRDNPHFQSGETSIVISDVLKGGPAEGQLQENDRVAMVNGVSMDNVEHAFAVQQLRKSGKNAKITIRRKK [chain 1 F17A]
5 | ~22 | chain 1 IWEQHTVTLHRAPGFGFGIAISGGRDNPHFQSGETSIVISDVLKGGPAEGQLQENDRVAMVNGVSMDNVEHAFAAQQLRKSGKNAKITIRRKK [chain 1 V75A]
